Laboratory results reported in patent publication US12072338B2, “Pharmaceutical peptides for the treatment of inflammatory diseases” (PROTAGONISTS LTD., priority 2007, dated 2024).
Read-outs that look alike come from different tables or passages of the source.

Legend:
SDF1-α = target: T1, SDF1-α (Homo sapiens, UniProt P48061); test: Micro-array analysis of chemokine binding peptides: SDF1-α
T1 construct: purchased 300-28a
Outline: (§1)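 Phage-presented peptides (10^7 pfu/μl in wash buffer) were incubated 1 h at room temperature on blocked slides carrying chemokine spots at 25 or 50 μg/ml. After anti-M13 and Cy3-labelled secondary antibody staining, slides were laser-scanned and spot fluorescence quantified as relative binding.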

BCA-1 = target: T2, BCA-1 (Homo sapiens, UniProt O43927); test: Micro-array analysis of chemokine binding peptides: BCA-1
T2 construct: purchased 300-47
T2 sequence (O43927 23-109): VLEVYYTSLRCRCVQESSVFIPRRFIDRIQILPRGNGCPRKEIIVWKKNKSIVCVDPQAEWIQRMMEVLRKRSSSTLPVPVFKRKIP
Outline: as §1

Fractalkine = target: T3, Fractalkine (Homo sapiens, UniProt P78423); test: Micro-array analysis of chemokine binding peptides: Fractalkine
T3 construct: purchased 300-31
T3 sequence (P78423 25-100 limits assumed): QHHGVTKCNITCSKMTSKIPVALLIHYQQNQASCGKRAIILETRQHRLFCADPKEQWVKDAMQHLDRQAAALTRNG
Outline: as §1

TECK = target: T4, TECK (Homo sapiens, UniProt O15444); test: Micro-array analysis of chemokine binding peptides: TECK
T4 construct: purchased 300-45
T4 sequence (O15444 24-150): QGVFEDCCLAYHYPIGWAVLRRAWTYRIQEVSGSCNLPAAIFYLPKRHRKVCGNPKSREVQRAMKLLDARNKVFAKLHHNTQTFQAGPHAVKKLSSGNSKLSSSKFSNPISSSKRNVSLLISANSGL
Outline: as §1

IL-8 = test: Micro-array analysis of chemokine binding peptides: IL-8; settings: for binding to IL-8 with relatively high affinity (Relative Fluorescence Units): limit = start of the upper 75% of that peptide's response range
IL-8, sequence (P10145 28-99 limits assumed): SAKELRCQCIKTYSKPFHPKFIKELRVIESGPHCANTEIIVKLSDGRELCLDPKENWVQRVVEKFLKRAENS
Outline: as §1

MCP-4 = target: T5, MCP-4 (Homo sapiens, UniProt Q99616); test: Micro-array analysis of chemokine binding peptides: MCP-4; settings: limit = start of the upper 75% of that peptide's response range
T5 construct: purchased 300-24
T5 sequence (Q99616 17-98): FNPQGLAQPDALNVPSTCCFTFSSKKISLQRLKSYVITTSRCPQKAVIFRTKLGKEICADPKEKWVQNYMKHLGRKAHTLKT
Outline: as §1

SDF1-β = target: T6, SDF1-β (Homo sapiens, UniProt P48061); test: Micro-array analysis of chemokine binding peptides: SDF1-β
T6 construct: purchased 300-28b
T6 sequence (P48061 22-93): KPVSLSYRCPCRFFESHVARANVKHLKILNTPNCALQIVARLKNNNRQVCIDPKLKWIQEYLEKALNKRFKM
Outline: as §1

I-309 = target: T7, I-309 (Homo sapiens, UniProt P22362); test: Micro-array analysis of chemokine binding peptides: I-309; settings: for binding to I-309 with relatively high affinity (Relative Fluorescence Units): limit = start of the upper 75% of that peptide's response range
T7 construct: purchased 300-37
T7 sequence (P22362 24-96): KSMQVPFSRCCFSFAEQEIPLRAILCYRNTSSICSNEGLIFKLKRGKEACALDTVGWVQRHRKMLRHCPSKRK
Outline: as §1

RANTES = target: T8, RANTES (Homo sapiens, UniProt P13501); test: Micro-array analysis of chemokine binding peptides: RANTES
T8 construct: purchased 300-06
T8 sequence (P13501 24-91): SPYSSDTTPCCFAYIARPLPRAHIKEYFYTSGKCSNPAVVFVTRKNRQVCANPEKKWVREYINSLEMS
Outline: as §1

MCP-2 = target: T9, MCP-2 (Homo sapiens, UniProt P80075); test: Micro-array analysis of chemokine binding peptides: MCP-2; settings: limit = start of the upper 75% of that peptide's response range
T9 construct: purchased 300-15
T9 sequence (P80075 24-99): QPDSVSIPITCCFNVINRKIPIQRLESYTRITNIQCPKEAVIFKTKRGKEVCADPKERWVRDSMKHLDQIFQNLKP
Outline: as §1

Eotaxin 3 = target: T10, Eotaxin 3 (Homo sapiens, UniProt Q9Y258); test: Micro-array analysis of chemokine binding peptides: Eotaxin 3; settings: for binding to Eotaxin 3 with relatively high affinity (Relative Fluorescence Units): limit = start of the upper 75% of that peptide's response range
T10 construct: purchased 300-48
T10 sequence (Q9Y258 24-94): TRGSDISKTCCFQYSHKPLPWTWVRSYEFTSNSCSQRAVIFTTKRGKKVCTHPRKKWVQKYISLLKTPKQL
Outline: as §1

I-TAC = target: T11, I-TAC (Homo sapiens, UniProt O14625); test: Micro-array analysis of chemokine binding peptides: I-TAC; settings: for binding to I-TAC with relatively high affinity (Relative Fluorescence Units): limit = start of the upper 75% of that peptide's response range
T11 construct: purchased 300-46
T11 sequence (O14625 22-94): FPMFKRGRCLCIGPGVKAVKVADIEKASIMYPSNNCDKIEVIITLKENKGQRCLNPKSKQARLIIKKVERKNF
Outline: as §1

[1] = limit = start of the upper 75% of that peptide's response range

T1 sequence (P48061 22-89 limits assumed): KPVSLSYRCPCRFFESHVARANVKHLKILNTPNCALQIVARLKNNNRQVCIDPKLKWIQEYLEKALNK

binding to SDF1-α, stated in words (SDF1-α)	binding to BCA-1, stated in words (BCA-1)	binding to Fractalkine, stated in words (Fractalkine)	binding to TECK, stated in words (TECK)	binding to IL-8 with relatively high affinity (Relative Fluorescence Units) (IL-8)	binding to MCP-4 with relatively high affinity (Relative Fluorescence Units) (MCP-4)	binding to SDF1-β, stated in words (SDF1-β)	binding to I-309 with relatively high affinity (Relative Fluorescence Units) (I-309)	binding to MCP-2 with relatively high affinity (Relative Fluorescence Units) (MCP-2)	binding to Eotaxin 3 with relatively high affinity (Relative Fluorescence Units) (Eotaxin 3)	binding to I-TAC with relatively high affinity (Relative Fluorescence Units) (I-TAC)	binding to IL-8, stated in words (IL-8)	Sequence	also measured
bound	bound	bound	bound	> 15,000 RFU	> 15,000 RFU	bound	> 15,000 RFU	> 15,000 RFU	> 15,000 RFU	> 15,000 RFU	–	DYDYGAPC [Ph-p30]	binding to RANTES with relatively high affinity (Relative Fluorescence Units) (RANTES; [1]): > 15,000 RFU
bound	bound	bound	bound	–	> 15,000 RFU	bound	–	> 15,000 RFU	–	–	bound	WVFGAAMCK [Ph-p8.8]	binding to Fractalkine, stated in words (Fractalkine; listed as P8.8): bound specifically and differentially; binding to IL-8, stated in words (IL-8; listed as P8.8): bound specifically and differentially; binding to I-309, stated in words (I-309): bound; binding to Eotaxin 3, stated in words (Eotaxin 3): bound; binding to I-TAC, stated in words (I-TAC): bound
–	–	bound specifically and differentially	–	> 25,000 RFU	> 25,000 RFU	–	> 25,000 RFU	> 25,000 RFU	> 25,000 RFU	> 25,000 RFU	bound specifically and differentially	WVFGNAMCK [P8]	binding to BCA-1 with relatively high affinity (Relative Fluorescence Units) (BCA-1; [1]): > 25,000 RFU; binding to Fractalkine with relatively high affinity (Relative Fluorescence Units) (Fractalkine; [1]): > 25,000 RFU; binding to TECK with relatively high affinity (Relative Fluorescence Units) (TECK; [1]): > 25,000 RFU; binding to SDF1-β with relatively high affinity (Relative Fluorescence Units) (SDF1-β; [1]): > 25,000 RFU; binding to RANTES, stated in words (RANTES): bound specifically and differentially
